# According to paper PMC8167299, “Cardio- and reno-protective effects of dipeptidyl peptidase III in diabetic mice” (The Journal of Biological Chemistry, 2021):
# Where no end group is shown, it is not given here.
# Columns and labels:
# SGLT2 = conditions: cited from earlier work
# Description: DM patients have a high mortality rate, mainly due to DM-related heart and/or kidney failure ([35], [43]). Pathologically, heart dysfunction exacerbates kidney damage, while renal injury negatively affects cardiac function. […] To reduce diabetic complications in tissues and organs, particularly in the heart and kidney, great effort has been made to develop effective medicines and therapeutics for DM. Among these, much attention ...
# db/m mice = experiment: Peptide 2 or control peptide administration for 8 weeks in nondiabetic db/m mice; format: in vivo, mouse; conditions: for Heart rate during echocardiography: db/m mice, isoflurane anesthesia, average ± SD, n= 7
# RhoA = experiment: Pull-down assay for GTP-bound active RhoA in HUVECs; format: cell-based, human; conditions: presence of PKC inhibitor vs DMSO
# Experimental: These experiments were performed as described previously with some modifications ([70]). Briefly, total cell lysates were obtained using the RIPA lysis buffer (50 mmol/l Tris-HCl [pH 7.5], 150 mmol/l NaCl, 0.5% deoxycholate sodium, 0.1% SDS, 1% Nonidet P-40, and 100 mM PMSF). The samples were separated by SDS-PAGE and blotted on a polyvinylidene difluoride membrane. The membrane was sequentially incubated with primary Ab and horseradish peroxidase (HRP)-labeled secondary Ab, followed by treatment with HRP substrate (Luminata Forte, Millipore Corp). The target protein band was observed using the luminescent image analyzer LAS-4000 (Fujifilm Life Science). The pull-down assay was performed as described previously with some modifications ([71]). Briefly, the cell lysates were incubated with glutathione S-transferase-fused mDia Rho-binding domain and glutathione-sepharose beads (GE Healthcare) at 2 °C to collect active GTP-bound RhoA.
# [1] = system: U937 macrophage-like cells on a monolayer of HUVECs; experiment: Transmigration assay of U937 cells across a HUVEC monolayer (Transwell); format: cell-based, human; conditions: presence of PKC inhibitor vs DMSO
# Experimental: The upper inserts (5.0 μm pore size) of Chemotaxicells (Kurabo Industries, Ltd) were coated with 100 μg fibronectin (Sigma-Aldrich). HUVECs were seeded on the insert and cultured for 48 h to form an endothelial monolayer. […] The number of U937 cells that migrated into the lower wells was counted using the Counting chamber (ERMA Inc).
# db/db mice [2] = conditions: mouse, in vivo, iv
# Experimental: We examined the in vivo cytotoxicity of Peptide 2 by intravenous injection of this peptide (0.5 μg/g body weight) into mice.
# Following euthanasia of the mice by cervical dislocation, they were perfused with PBS, and the heart and kidney were extracted. The extracted organs were snap-frozen in liquid nitrogen within a block of water-soluble medium (Surgipath FSC 22, Leica Biosystems) or fixed with 4% paraformaldehyde and subsequently embedded in paraffin blocks. Regarding the frozen samples, they were sectioned in 10 μm thick using a cryostat (Leica Biosystems), fixed with 4% paraformaldehyde on top of poly-L-lysine-coated slides, permeabilized with 0.1% Triton X-100, and blocked with 1% bovine serum albumin (BSA). Primary antibodies (Abs) (see below) were applied in the BSA blocking solution at 4 °C overnight, followed by 1 h incubation at room temperature with fluorescent dye-labeled secondary Abs. Paraffin sections, 4 μm thick, were stained with H-E, WGA (1:500 dilution) (Thermo Fisher Scientific) or Sirius red (1:1000 dilution) (Fujifilm Wako Pure Chemical Corporation) using standard techniques. Confocal images were taken using a Leica SP8 microscope (Leica Microsystems). […] As described previously ([68]), at least three random fields were selected from the four sections in each heart to quantify the extent of fibrotic or immunopositive area using ImageJ software.
# C3a receptor (C3aR) = molecular target: T1, C3a receptor (C3aR) (Homo sapiens, UniProt Q16581); experiment: Cell surface attachment of FITC-Peptide 2 on HUVECs through C3aR; format: binding; conditions: C3aR-knockdown (siC3aR #2) vs scramble RNA-transfected HUVECs; 2 h at 4 °C
# T1 construct: host or cells: HUVECs
# T1 sequence (Q16581 1-482): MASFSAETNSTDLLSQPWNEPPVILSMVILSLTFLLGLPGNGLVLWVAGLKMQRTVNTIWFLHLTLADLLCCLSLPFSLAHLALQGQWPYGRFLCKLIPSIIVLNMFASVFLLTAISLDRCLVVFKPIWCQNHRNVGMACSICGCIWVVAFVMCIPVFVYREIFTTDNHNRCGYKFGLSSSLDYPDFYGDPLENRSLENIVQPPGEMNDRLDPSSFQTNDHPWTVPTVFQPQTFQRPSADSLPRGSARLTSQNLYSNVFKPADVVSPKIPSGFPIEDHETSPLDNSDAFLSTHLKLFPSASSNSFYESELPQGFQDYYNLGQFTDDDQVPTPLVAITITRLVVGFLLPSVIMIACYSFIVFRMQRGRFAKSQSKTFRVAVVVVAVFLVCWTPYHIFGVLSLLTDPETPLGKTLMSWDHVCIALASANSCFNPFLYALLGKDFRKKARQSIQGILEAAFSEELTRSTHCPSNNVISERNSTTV
# Experimental: The expression level of C3a receptor 1 (C3aR) was evaluated by semiquantitative PCR. mRNA was extracted using TRIzol RNA isolation reagent (Thermo Fisher Scientific), and cDNA was synthesized using ReverTra Ace (Toyobo). PCR was performed using rTaq DNA polymerase (TaKaRa Bio Inc). The band densities of PCR products were quantified using the ImageJ software. The mRNA expression level of C3aR was adjusted to that of β-actin as an internal control. Primer sequences for the experiments were as follows: C3aR forward 5′-[…]-3′ and reverse 5′-[…]-3′; β-actin forward 5′-[…]-3′ and reverse 5′-[…]-3′. To silence C3aR expression in HUVECs, siRNA against C3aR (#1: 5′-[…]-3′, #2: 5′-[…]-3′) was transfected into the cells with RNAiMAX (Thermo Fisher Scientific), and the cells were cultured for 2 days.
# FITC-conjugated Peptide 2 was generated by Biologica Co. HUVECs, in which C3aR was or was not knocked down, were incubated with the indicated concentrations of FITC-Peptide 2 for 2 h at 4 °C. Subsequently, the cells were washed with PBS three times and labeled with tetramethylrhodamine-WGA (Thermo Fisher Scientific). Following fixation with 4% paraformaldehyde, the attached peptides on the cell surface were observed using a Leica SP8 microscope (Leica Microsystems).
# db/db mice [3] = system: db/db mice
# [4] = system: AngII-stimulated hypertensive mice; conditions: AngII-stimulated hypertensive vs normotensive mice; cited from earlier work
# [5] = nondiabetic db/m mice, 8-week administration
# [6] = DPPIII 10 μg/g iv, after 8 weeks
# [7] = DPPIII 10 μg/g iv, after 8 weeks, vs PBS
molecule,measurement,setting,value
Cc1ccc([C@@H]2O[C@H](CO)[C@@H](O)[C@H](O)[C@H]2O)cc1Cc1ccc(-c2ccc(F)cc2)s1 [canagliflozin],Heart failure and DKD in DM patients,SGLT2,improves heart failure and DKD
"IAFSQYLQK [control peptide, reference compound]",Heart rate during echocardiography,db/m mice; week 0,410 ± 30
same,Heart rate during echocardiography,db/m mice; week 4,423 ± 32
same,Heart rate during echocardiography,db/m mice; week 8,407 ± 30
"Cn1c2ccccc2c2c3c(c4c5ccccc5n(CCC#N)c4c21)CNC3=O [PKC inhibitor, Gö6976]",Effect on Peptide-2-induced RhoA activation,RhoA,inhibited in the presence of PKC inhibitor
same,Effect on Peptide-2-induced U937 transendothelial migration,[1],inhibited in the presence of PKC inhibitor
RLLWENGNL [Peptide 2],Desmin deposition and microvasculature disruption in the glomeruli,db/db mice [2],highly enhanced
same,Heart rate during echocardiography,db/m mice; week 0,417 ± 32
same,Heart rate during echocardiography,db/m mice; week 4,402 ± 41
same,Heart rate during echocardiography,db/m mice; week 8,414 ± 42
same,"Body weight, blood glucose level, or hemodynamics",db/m mice; [5],did not affect
same,Deteriorative effects on the organs (heart and kidney),db/m mice; [5],not observed in db/m mice
"FITC-Peptide 2: fluorescein isothiocyanate (FITC)-conjugated Peptide 2 (RLLWENGNL; also: FITC-conjugated, position not given here)",FITC-Peptide 2 attachment on the cells (fluorescence microscopy),C3a receptor (C3aR),significantly reduced in C3aR-knockdown HUVECs
"dipeptidyl peptidase III (protein, UniProt Q9NY33 2-737, looked up, aminopeptidase that cleaves specific dipeptides from the N terminus of relatively small peptides) Dipeptidyl peptidase 3: ADTQYILPNDIGVSSLDCREAFRLLSPTERLYAYHLSRAAWYGGLAVLLQTSPEAPYIYALLSRLFRAQDPDQLRQHALAEGLTEEEYQAFLVYAAGVYSNMGNYKSFGDTKFVPNLPKEKLERVILGSEAAQQHPEEVRGLWQTCGELMFSLEPRLRHLGLGKEGITTYFSGNCTMEDAKLAQDFLDSQNLSAYNTRLFKEVDGEGKPYYEVRLASVLGSEPSLDSEVTSKLKSYEFRGSPFQVTRGDYAPILQKVVEQLEKAKAYAANSHQGQMLAQYIESFTQGSIEAHKRGSRFWIQDKGPIVESYIGFIESYRDPFGSRGEFEGFVAVVNKAMSAKFERLVASAEQLLKELPWPPTFEKDKFLTPDFTSLDVLTFAGSGIPAGINIPNYDDLRQTEGFKNVSLGNVLAVAYATQREKLTFLEEDDKDLYILWKGPSFDVQVGLHELLGHGSGKLFVQDEKGAFNFDQETVINPETGEQIQSWYRSGETWDSKFSTIASSYEECRAESVGLYLCLHPQVLEIFGFEGADAEDVIYVNWLNMVRAGLLALEFYTPEAFNWRQAHMQARFVILRVLLEAGEGLVTITPTTGSDGRPDARVRLDRSKIRSVGKPALERFLRRLQVLKSTGDVAGGRALYEGYATVTDAPPECFLTLRDTVLLRKESRKLIVQPNTRLEGSDVQLLEYEASAAGLIRSFSERFPEDGPELEEILTQLATADARFWKGPSEAPSGQA",Body weight and blood glucose level (increase during the experimental period),"db/db mice [3]; DPPIII 10 μg/g body weight iv three times weekly for 8 weeks, vs PBS",unaffected by DPPIII treatment
same,Left ventricular dimensions and systolic functions (echocardiography),"db/db mice [3]; DPPIII 10 μg/g iv, 8 weeks",not significantly changed
same,Urine albumin excretion (albuminuria),"db/db mice [3]; DPPIII 10 μg/g iv, 8 weeks, 24 h urine, SDS-PAGE, Coomassie staining",the increase was blocked by DPPIII treatment
same,Cardiac diastolic functions (pulse-wave and tissue Doppler echocardiography),"db/db mice [3]; DPPIII 10 μg/g iv, 8 weeks, vs PBS",improved the impaired diastolic functions
same,Desmin deposition in the glomeruli,db/db mice [3]; [6],almost totally reversed by DPPIII treatment
same,Disruption of glomerular microvasculature (CD31 staining),db/db mice [3]; [6],recovered
same,Morphology and size of cardiomyocytes (H-E and WGA staining),db/db mice [3]; [6],unchanged by DPPIII treatment
same,Plasma cholesterol or triglyceride levels,db/db mice [3]; [6],no effects
same,Podocyte foot process damage (electron microscopy),db/db mice [3]; [6],ameliorated by DPPIII treatment
same,Cardiac fibrosis (Sirius red staining),db/db mice [3]; [7],reduced by DPPIII treatment
same,Infiltration of CD68-positive inflammatory cells in the heart,db/db mice [3]; [7],reversed
same,Plasma concentration of Peptide 2 (SRM),"db/db mice [3]; after 8-week DPPIII administration, vs PBS-infused db/db mice",clearly reduced
same,Blood-pressure-lowering effect,[4],"BP-lowering effects were observed specifically in AngII-stimulated hypertensive mice, but not in normotensive mice"
